Reference: patent US12233115B2, “Long-acting parathyroid hormone” (Extend Biosciences, Inc., priority 2022, dated 2025)

Columns and labels:
[1] = tested on: healthy human participants; test: Single dose pharmacodynamics of EXT608 in healthy humans (serum calcium, endogenous PTH(1-84), urinary calcium); assay type: in vivo; settings: any dose level tested, about 36 hours post-administration (data not shown)
Description: EXT608 vastly improves the serum half-life in humans in a dose-dependent manner. Sterile EXT608 formulations were prepared at a concentration of 0.4 mg/ml in 10 mM sodium acetate buffer pH=5.5, 4.5% mannitol, and 0.25% Polysorbate 80 and filled into sterile vials. Healthy human participants were administered EXT608 by subcutaneous injection in the abdomen at doses of 0, 36, 108, 216, or 324 micrograms (n=3). Pharmacodynamics: Blood samples were collected at −24, −1, 0.5, 1, 2, 4, 8, 12, 18, 24, 36, 48, and 72 hours relative to dosing as well as on Days 5, 7, 14, 21, and 28 after dosing. They were processed to serum and submitted to Quest Diagnostics for standard blood chemistry analysis including total calcium and albumin. EXT608 raised serum calcium levels in a dose-dependent fashion and was able to maintain elevated calcium levels for 24 h. Blood samples (1.5 ml) were collected at −1, 4, 24, 48, and 72 hours relative to dosing as well as on Days 5, 7, 14, 21, and 28 after dosing. They were processed to EDTA plasma and submitted to Quest Diagnostics for intact PTH(1-84) analysis (Test Code #35202). In healthy humans, under conditions of elevated serum calcium, the body will attempt to restore normal calcium levels by a variety of mechanisms including suppression of endogenous PTH(1-84). […]

[2] = Single dose pharmacokinetics of EXT607 in male rats; settings: rat, in vivo, sc; rats, after subcutaneous dosing; read-out: terminal half-life
Description: In a single dose pharmacokinetic study, EXT607 was formulated in PBS and groups of male rats (n=3) were dosed at a volume of 1 ml/kg as follows: Group 1, 100 μg/kg intravenous; Group 2, 30 μg/kg subcutaneous; Group 3, 100 μg/kg subcutaneous; Group 4, 300 μg/kg subcutaneous. Blood (0.25 mL) was collected via the jugular vein cannula, transferred into tubes containing K2EDTA, and kept on wet ice until processed for plasma. Blood samples were collected at 0 (predose), 0.083 (IV only), 0.25, 0.5, 1, 2, 4, 6, 8, 12, 24, 36, 48, 60 and 72 h postdose.
Pharmacokinetic parameters were determined from the plasma concentration versus time data (Table 4) by a non-compartmental analysis with uniform weighting using Phoenix® WinNonlin® Version 6.3 (Certara L.P. (Pharsight), St. Louis, MO). The concentration versus time data were analyzed using the IV bolus or extravascular administration models. Best fit Lambda z ranges were used.

C=C1CC[C@H](OCCCNC(=O)CCOCCOCCOCCOCCOCCOCCOCCOCCOCCOCCOCCOCCOCCOCCOCCOCCOCCOCCOCCOCCOCCOCCOCCOCCOCCOCCOCCOCCOCCOCCOCCOCCOCCOCCOCCOCCNC(=O)CCN2C(=O)CC(SC[C@H](NC(=O)[C@H](Cc3ccccc3)NC(=O)[C@H](CC(N)=O)NC(=O)[C@H](Cc3c[nH]cn3)NC(=O)[C@@H](NC(=O)[C@H](CC(=O)O)NC(=O)[C@H](CCC(N)=O)NC(=O)[C@H](CC(C)C)NC(=O)[C@H](CCCCN)NC(=O)[C@H](CCCCN)NC(=O)[C@H](CCCNC(=N)N)NC(=O)[C@H](CC(C)C)NC(=O)[C@H](Cc3c[nH]c4ccccc34)NC(=O)[C@H](CCC(=O)O)NC(=O)[C@@H](NC(=O)[C@H](CCCNC(=N)N)NC(=O)[C@H](CCC(=O)O)NC(=O)[C@H](CCSC)NC(=O)[C@H](CO)NC(=O)[C@H](CC(N)=O)NC(=O)[C@H](CC(C)C)NC(=O)[C@H](Cc3c[nH]cn3)NC(=O)[C@H](CCCCN)NC(=O)CNC(=O)[C@H](CC(C)C)NC(=O)[C@H](CC(N)=O)NC(=O)[C@H](Cc3c[nH]cn3)NC(=O)[C@H](CCSC)NC(=O)[C@H](CC(C)C)NC(=O)[C@H](CCC(N)=O)NC(=O)[C@@H](NC(=O)[C@H](CCC(=O)O)NC(=O)[C@H](CO)NC(=O)[C@@H](NC(=O)[C@@H](N)CO)C(C)C)[C@@H](C)CC)C(C)C)C(C)C)C(N)=O)C2=O)C/C1=C/C=C1\CCC[C@]2(C)[C@@H]([C@H](C)CCCC(C)(C)O)CC[C@@H]12 (some centres unmarked) [EXT608]
effect on urinary calcium [1]: did not cause a significant increase | half-life [2]: 8 to 15 h
